According to PMC11482875:

Molecular target: miniTRIM37 RBhcc (human | T. thermophilus) (UniProt O94972)
Assay: SEC-MALS

- stoichiometry N: 2
Substance: miniTRIM37 RBhcc (from UniProt O94972 1-158; O94972 214-254)
